From patent publication US20170275639A1 come the findings set out here.

The assay has as its target WNV (strain New York 1999), infectious virus (West Nile virus, strain New York 1999) (UniProt Q9Q6P4). Nature of the assay: cell-based or functional assay.

Take “Tetra pHu-E16 (tetravalent molecule assembled from pHu-E16scFv-CH^1-3 and pHu-E16scFv-CL) (antibody)”: the EC50, focus reduction neutralization assay (Vero cells) is 3 ng/mL.
